{"source": "patent US20230090114A1", "about": "“METHODS FOR PROMOTING WEIGHT LOSS” (89BIO LTD., priority 2020, published 2023)", "key": {"[1]": {"experiment": "Body weight of CD-1 mice, 4-week SC treatment", "assay_type": "in vivo", "protocol": "Detailed Methods: Adult male CD-1 mice at 6 weeks of age at receipt (with an expected weight of 35-39 g) were purchased from Charles River (St Germain sur l'Arbresle, France). From receipt, mice were singly housed and allowed ad libitum access to water and to a control diet (pellet A04; SAFE, Villemoisson-sur-Orge, France), unless otherwise noted (see Section D.). Throughout the study, animals were maintained in an ambient temperature (22.0±1.0° C.) and humidity (40-50%) controlled room on a 12-h light/12-h dark cycle (9:00 PM: Light ON/9:00 AM Light OFF).\nAt receipt and until the end of the experiment, all animals fed the control diet (A04 pellet). Following the acclimation and habituation periods, forty-eight (48) mice were subcutaneously treated either with vehicle, liraglutide (as the benchmark) or 89BIO-100 (3 different doses tested).\nFrom T1 to T28, vehicle and 89BIO100 (at the 3 different doses) were administrated by subcutaneous (SC) injection three times a week, while the treatment with liraglutide was administrated by subcutaneous route, twice a day, every day. It was important to notice that the first dosing was done just before the […] (at 9:00 AM) and the second dosing was done 8 hours after the first one (at 5:00 PM). Throughout the treatment period, FI and BW were daily measured.\nGeneral Methods: Naive CD-1 mice were treated subcutaneously (SC) for 4 weeks at ambient temperature with BIO89-100 at doses of 0, 0.3, 1.0 and 3.0 mg/kg (3qW×4 weeks) or with liraglutide at 0.2 mg/kg (BID×4 W; SC). BW and FC were measured daily throughout the treatment period. To investigate the impact of BIO89-100 on energy expenditure, the respiratory exchanges (VO2 and VCO2) were recorded during 3 distinct sessions of METABOpack™, a multiparametric approach allowing an automated and simultaneous recording of FC, water intake, respiratory exchanges and spontaneous activity. Meal pattern analysis was conducted on the high-resolution recordings of FC. The body composition (fat, lean and fluid masses) was analyzed 3 times during the study by the mean of Time-Domain Nuclear Magnetic Resonance (TD-NMR)."}, "[2]": {"experiment": "Water intake (METABOpack sessions);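 for cumulative water intake: water intake recorded in mL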", "assay_type": "in vivo, CD-1 mice", "excerpt": "During the METABOpack™ sessions, animals were housed singly in the Physiocage System (Panlab/Harvard apparatus), which was composed of: • 8 physiocages (LE1301) • 8 Air tight lids for mouse (LE1303) • 8 grid floors for mouse (LE1317) • 8 Feeding bottles for mouse (LE1306) • 2 Air supply and switching units for up to 4 home cages each (LE4004FL) • 1 O2/CO2 analyzer (LE405) • 1 acquisition software suite, METABOLISM (V3.0).\nIn the present project, a METABOpack™ session was consisted of a 12-hour period of acclimation followed by a 48-hour period of recording of the respiratory exchanges, FI, water intake (WI) and locomotor activity of each animal.\nFollowing this acclimation period, the parameters cited above were automatically and simultaneously recorded for 48 hours, except for body weight that was measured manually every day.\nThe METABOpack™ sessions were conducted at the start (T1-2), the middle (T14-15) and the end (T26-27) of the treatment period."}, "[3]": {"experiment": "Total spontaneous activity and rearing (METABOpack sessions)", "assay_type": "in vivo, CD-1 mice", "settings": "T2; WD; 0.3 and 3 mg/kg; vs Liraglutide", "protocol": "Horizontal spontaneous activity and rearing behavior were recorded every second by the Physiocage System. The analysis was performed by plotting data every 30 minutes in order to obtain the kinetic of the behaviors. For each mouse, the sums of the activity and rearing events were calculated for each nycthemeral phase (Diurnal period or DP; Nocturnal period or NP and Whole Day or WD). The means per nycthemeral phase were then calculated for each group for statistical comparisons."}, "[4]": {"experiment": "Organ/tissue weights on T28", "assay_type": "in vivo, CD-1 mice", "settings": "for eWAT weight: T28", "protocol": "On T28, after 4 hours of fasting, a terminal sampling of blood and organs/tissues was performed on anaesthetized mice (by a mixture of Ketamine/Xylazine, 80/10 mg/kg). A large blood sample was collected by cardiac puncture, and the following organ/tissues were collected, weighed, snap-frozen in liquid nitrogen and stored at −80° C. for further analyses: […]"}, "[5]": {"experiment": "Diet-induced NASH model in mice", "assay_type": "in vivo", "settings": "0.3 mg/kg, 3 times/week"}}}
{"molecule": "Mutant FGF21-GalNAc-SA-PEG-20 kDa (conjugate) MHPIPDSSPLLQFGGQVRQRYLYTDDAQQTEAHLEIREDGTVGGAADQSPESLLQLKALKPGVIQILGVKTSRFLCQRPDGALYGSLHFDPEACSFRELLLEDGYNVYQSEAHGLPLHLPGNKSPHRDPAPRGPARFLPLPGLPPALPEPPGILAPQPPDVGSSDPLSMVGPTQGASPSYAS", "values": [{"measurement": "delta body weight", "setting": "[1]; 0.3 mg/kg, vs Liraglutide, T2-T11, T13-T16", "result": "increase in delta body weight"}, {"measurement": "body weight", "setting": "[1]; 0.3 mg/kg, vs Liraglutide, T2-T24 and T26", "result": "greater body weight"}, {"measurement": "delta body weight", "setting": "[1]; 0.3 mg/kg, vs vehicle, T3-T6", "result": "increase in delta body weight"}, {"measurement": "delta body weight", "setting": "[1]; 1 mg/kg, vs 0.3 mg/kg, T6-T21", "result": "significant decrease in delta body weight"}, {"measurement": "body weight", "setting": "[1]; 1 mg/kg, vs Liraglutide, T2-T5", "result": "greater body weight"}, {"measurement": "delta body weight", "setting": "[1]; 1 mg/kg, vs vehicle, T8-T21, T23, T24", "result": "marked decrease in delta body weight"}, {"measurement": "delta body weight", "setting": "[1]; 3 mg/kg, vs 0.3 mg/kg, T5-T28", "result": "marked decrease in delta body weight"}, {"measurement": "delta body weight", "setting": "[1]; 3 mg/kg, vs 1 mg/kg, T11, T12, T13, T15", "result": "significant decrease in delta body weight"}, {"measurement": "body weight", "setting": "[1]; 3 mg/kg, vs 0.3 and 1 mg/kg, over treatment period", "result": "reduced the body weight"}, {"measurement": "delta body weight", "setting": "[1]; 3 mg/kg, vs Liraglutide, T8-T13 and T25", "result": "significant decrease in delta body weight"}, {"measurement": "body weight", "setting": "[1]; 3 mg/kg, vs Liraglutide, T11-T13", "result": "lower body weight"}, {"measurement": "delta body weight", "setting": "[1]; 3 mg/kg, vs vehicle, T3 and T6-T28", "result": "marked decrease in delta body weight"}, {"measurement": "body weight", "setting": "[1]; 3 mg/kg, vs vehicle, except T2, T3, T4", "result": "lower body weight"}, {"measurement": "body weight", "setting": "[1]; 0.3 and 1 mg/kg, vs vehicle", "result": "did not show any difference in body weight"}, {"measurement": "body weight", "setting": "[1]; 1 and 3 mg/kg, throughout treatment period (summary)", "result": "lower body weight in dose-dependent manner"}, {"measurement": "delta body weight", "setting": "[1]; 1 and 3 mg/kg, vs Liraglutide, T2-T4", "result": "increase in delta body weight"}, {"measurement": "decrease in BW", "setting": "[1]; naive CD-1 mice, 0.3-3.0 mg/kg SC 3qW x 4 weeks, dose-dependent, up to", "result": "up to −13.8%"}, {"measurement": "mean water intake", "setting": "[2]; T1, DP, 3 mg/kg, vs 0.3 and 1 mg/kg", "result": "decreased"}, {"measurement": "mean water intake", "setting": "[2]; T1, DP, 0.3 and 1 mg/kg, vs Liraglutide", "result": "increased"}, {"measurement": "mean water intake", "setting": "[2]; T1, NP and WD, whatever the dose, vs Liraglutide", "result": "increase in mean water intake"}, {"measurement": "mean water intake", "setting": "[2]; T1, three doses, vs vehicle", "result": "no significant difference"}, {"measurement": "cumulative water intake", "setting": "[2]; T2, 0.3 mg/kg, vs Liraglutide, 5-24 h", "result": "increased"}, {"measurement": "cumulative water intake", "setting": "[2]; T2, 0.3 mg/kg, vs vehicle, at 5, 6, 7, 9, 10 h and 12-24 h", "result": "increased"}, {"measurement": "cumulative water intake", "setting": "[2]; T2, 1 mg/kg, vs Liraglutide, 4-24 h", "result": "increased"}, {"measurement": "cumulative water intake", "setting": "[2]; T2, 1 mg/kg, vs vehicle, 4-24 h", "result": "increased"}, {"measurement": "cumulative water intake", "setting": "[2]; T2, 3 mg/kg, vs Liraglutide, 2-24 h", "result": "increased"}, {"measurement": "cumulative water intake", "setting": "[2]; T2, 3 mg/kg, vs vehicle, 2-24 h", "result": "increased"}, {"measurement": "mean water intake", "setting": "[2]; T2, NP, 0.3 and 1 mg/kg, vs vehicle", "result": "increased"}, {"measurement": "mean water intake", "setting": "[2]; T2, WD, whatever the dose, vs vehicle", "result": "increased"}, {"measurement": "cumulative water intake", "setting": "[2]; T2, between the three 89BIO-100 groups", "result": "no significant difference"}, {"measurement": "mean water intake", "setting": "[2]; T2, whatever the phase, whatever the dose, vs Liraglutide", "result": "increase in mean water intake"}, {"measurement": "cumulative water intake", "setting": "[2]; T14, 1 mg/kg, vs 0.3 mg/kg, at 2 h and 7-24 h", "result": "increased"}, {"measurement": "cumulative water intake", "setting": "[2]; T14, 3 mg/kg, vs 0.3 mg/kg, 3-24 h", "result": "increased"}, {"measurement": "cumulative water intake", "setting": "[2]; T14, 1 and 3 mg/kg, vs Liraglutide, 2-24 h", "result": "increased"}, {"measurement": "cumulative water intake", "setting": "[2]; T14, 1 and 3 mg/kg, vs vehicle, 2-24 h", "result": "increased"}, {"measurement": "mean water intake", "setting": "[2]; T14, NP, 1 and 3 mg/kg, vs 0.3 mg/kg", "result": "increased"}, {"measurement": "mean water intake", "setting": "[2]; T14, WD, 3 mg/kg, vs 0.3 mg/kg", "result": "increased"}, {"measurement": "mean water intake", "setting": "[2]; T14, whatever the phase, 1 and 3 mg/kg, vs Liraglutide", "result": "increase in mean water intake"}, {"measurement": "mean water intake", "setting": "[2]; T14, whatever the phase, 1 and 3 mg/kg, vs vehicle", "result": "increased"}, {"measurement": "cumulative water intake", "setting": "[2]; T15, 1 mg/kg, vs 0.3 mg/kg, 2-24 h", "result": "increased"}, {"measurement": "cumulative water intake", "setting": "[2]; T15, 3 mg/kg, vs 0.3 mg/kg, 1-15 h", "result": "increased"}, {"measurement": "cumulative water intake", "setting": "[2]; T15, 1 and 3 mg/kg, vs Liraglutide, over 24 h", "result": "increased"}, {"measurement": "cumulative water intake", "setting": "[2]; T15, 1 and 3 mg/kg, vs vehicle, over 24 h", "result": "increased"}, {"measurement": "cumulative water intake", "setting": "[2]; T26, 1 mg/kg, vs Liraglutide, at 3 h, 4 h and 6-21 h", "result": "increased"}, {"measurement": "cumulative water intake", "setting": "[2]; T26, 1 mg/kg, vs vehicle, only at 3 h and 4 h", "result": "increased"}, {"measurement": "cumulative water intake", "setting": "[2]; T26, 3 mg/kg, vs 0.3 mg/kg, 5-16 h", "result": "increased"}, {"measurement": "cumulative water intake", "setting": "[2]; T26, 3 mg/kg, vs Liraglutide, 3-24 h", "result": "increased"}, {"measurement": "cumulative water intake", "setting": "[2]; T26, 3 mg/kg, vs vehicle, 3-24 h", "result": "increased"}, {"measurement": "mean water intake", "setting": "[2]; T26, NP and WD, 3 mg/kg, vs vehicle", "result": "increased"}, {"measurement": "mean water intake", "setting": "[2]; T26, NP, 3 mg/kg, vs 0.3 mg/kg", "result": "increased"}, {"measurement": "mean water intake", "setting": "[2]; T26, NP, 1 and 3 mg/kg, vs Liraglutide", "result": "increase in mean water intake"}, {"measurement": "mean water intake", "setting": "[2]; T26, WD, 3 mg/kg, vs Liraglutide", "result": "increase in mean water intake"}, {"measurement": "cumulative water intake", "setting": "[2]; T27, 1 mg/kg, vs vehicle, 2-5 h", "result": "increased"}, {"measurement": "cumulative water intake", "setting": "[2]; T27, 3 mg/kg, vs 0.3 mg/kg, at 1 h and 3-8 h", "result": "increased"}, {"measurement": "cumulative water intake", "setting": "[2]; T27, 3 mg/kg, vs 1 mg/kg, at 3 h, 4 h, 5 h and 7 h", "result": "increased"}, {"measurement": "cumulative water intake", "setting": "[2]; T27, 3 mg/kg, vs Liraglutide, over 24 h", "result": "increased"}, {"measurement": "cumulative water intake", "setting": "[2]; T27, 3 mg/kg, vs vehicle, over 24 h", "result": "increased"}, {"measurement": "mean water intake", "setting": "[2]; T27, NP and WD, 3 mg/kg, vs vehicle and Liraglutide groups", "result": "increased"}, {"measurement": "mean water intake", "setting": "[2]; section On T15 (text prints T14), NP and WD, 1 and 3 mg/kg, vs vehicle", "result": "increased"}, {"measurement": "mean water intake", "setting": "[2]; section On T15, NP and WD, 1 and 3 mg/kg, vs Liraglutide", "result": "increase in mean water intake"}, {"measurement": "mean water intake", "setting": "[2]; section On T15, NP, 1 and 3 mg/kg, vs 0.3 mg/kg", "result": "increased"}, {"measurement": "mean water intake", "setting": "[2]; section On T15, WD, 1 mg/kg, vs 0.3 mg/kg", "result": "increased"}, {"measurement": "total spontaneous activity", "setting": "[3]", "result": "higher total spontaneous activity"}, {"measurement": "epididymal white adipose tissue (eWAT) weight", "setting": "[4]; 89BIO-100 treated mice (summary)", "result": "strongly reduced"}, {"measurement": "eWAT weight", "setting": "[4]; 1 and 3 mg/kg, vs vehicle", "result": "significant decrease in eWAT weight"}, {"measurement": "eWAT weight", "setting": "[4]; among the three 89BIO-100 groups", "result": "no significant difference"}, {"measurement": "efficacy in Diet-induced NASH model", "setting": "[5]", "result": "effective"}]}
